Here are results for two substances from article PMC3325936.

The target of assay [1] is GST:Anillin (608–940) (human) (UniProt Q9NQW6). The experiment in a line: pull-down; lysates of transfected HEK-293 cells diluted by 0.5-fold, 0.25-fold or 0.05-fold, pulled down with 200 nM GST-tagged AHD; western blot for Myc, % bound protein.
Assay [2] has the same target. The assay can be described thus: pull-down; purified MBP- or GST-tagged anillin fragments (200 nM) as bait; lysates of transfected HEK-293 cells; 50 mM Tris pH7.6, 150 mM NaCl, 5 mM MgCl2, 0.5% Triton X-100, 1 mM DTT, 4°C; western blot for Myc.

Chain of UniProt Q9NQW6 (Q9NQW6 645-977): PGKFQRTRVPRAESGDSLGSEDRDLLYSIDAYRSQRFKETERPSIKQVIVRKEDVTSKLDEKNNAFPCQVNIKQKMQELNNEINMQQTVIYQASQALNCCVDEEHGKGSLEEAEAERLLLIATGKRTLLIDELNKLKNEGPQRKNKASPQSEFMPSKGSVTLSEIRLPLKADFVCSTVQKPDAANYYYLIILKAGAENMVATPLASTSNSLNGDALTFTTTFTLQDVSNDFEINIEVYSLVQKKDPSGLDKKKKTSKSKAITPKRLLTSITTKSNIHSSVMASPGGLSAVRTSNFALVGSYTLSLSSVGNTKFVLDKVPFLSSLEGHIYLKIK

With Myc:Ect2 (421–883) (domain or fragment), the percent of protein bound at the lowest dilution in assay [1] came to 38%. On to “Myc:Ect2 (421–883; D668G) (domain or fragment)”, for which the fold change of the amount pulled down against wild-type Ect2 (C-term) in assay [2] turned out to be 0.5 fold lower.
